Literature values as cited in publication PMC4853784.

Molecular target: V1b receptor (Homo sapiens) (UniProt P47901)
Assay: radioligand

UniProt P47901, sequence (P47901 whole entry): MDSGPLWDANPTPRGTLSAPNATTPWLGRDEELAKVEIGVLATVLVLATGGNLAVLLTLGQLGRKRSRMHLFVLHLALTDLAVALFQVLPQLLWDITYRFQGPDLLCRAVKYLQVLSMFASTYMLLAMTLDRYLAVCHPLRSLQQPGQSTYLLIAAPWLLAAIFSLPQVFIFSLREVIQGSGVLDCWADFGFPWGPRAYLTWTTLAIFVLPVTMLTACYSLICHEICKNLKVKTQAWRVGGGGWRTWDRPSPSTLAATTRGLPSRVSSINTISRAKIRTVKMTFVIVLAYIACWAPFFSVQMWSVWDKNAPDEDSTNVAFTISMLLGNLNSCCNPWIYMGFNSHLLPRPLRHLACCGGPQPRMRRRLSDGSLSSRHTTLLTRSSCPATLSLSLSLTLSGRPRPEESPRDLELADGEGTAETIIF

- Kd: 1.8 nM
Substance: vasopressin (from UniProt P01185)
